Data taken from paper PMC10779143, “Collagen-like Osteoclast-Associated Receptor (OSCAR)-Binding Motifs Show a Co-Stimulatory Effect on Osteoclastogenesis in a Peptide Hydrogel System” (International Journal of Molecular Sciences, 2023).
[ ]: non-standard residue; d: D form. Hyp = O=C(O)[C@@H]1C[C@@H](O)CN1

Target: T1, Recombinant human OSCAR-Fc chimera (human)
T1 construct: extracellular region of human osteoclast-associated receptor (OSCAR), Asp19-Asn229 of NP_573399; In the functional rows the OSCAR of the test system is the endogenous mouse receptor of Raw 264.7 cells, not this construct; also called osteoclast-associated receptor; source: bought: R&D Systems, Bio-Techne, 9955-OS
Test: SPR; Biacore T200, CM5 chip; OSCAR-Fc immobilised by amine coupling to 6880 RU; peptides flowed as analytes at 30 µL/min, 25 °C, 10 mM PBS, 150 mM NaCl, 0.05% Tween20, pH 7.4; OP1_Hyp 5000-0 nM (Langmuir 1:1 kinetic fit), OP1_Pro 40,000-0 nM (steady-state analysis)
Conditions: both partners purified

Row | Binder | Kd [µM]
1 | Ac-GP[Hyp]GP[Hyp]GP[Hyp]GAPGPAGFAGP[Hyp]GP[Hyp]GP[Hyp]-NH2 (SMILES CC(=O)NCC(=O)N1CCC[C@H]1C(=O)N1C[C@H](O)C[C@H]1C(=O)NCC(=O)N1CCC[C@H]1C(=O)N1C[C@H](O)C[C@H]1C(=O)NCC(=O)N1CCC[C@H]1C(=O)N1C[C@H](O)C[C@H]1C(=O)NCC(=O)N[C@@H](C)C(=O)N1CCC[C@H]1C(=O)NCC(=O)N1CCC[C@H]1C(=O)N[C@@H](C)C(=O)NCC(=O)N[C@@H](Cc1ccccc1)C(=O)N[C@@H](C)C(=O)NCC(=O)N1CCC[C@H]1C(=O)N1C[C@H](O)C[C@H]1C(=O)NCC(=O)N1CCC[C@H]1C(=O)N1C[C@H](O)C[C@H]1C(=O)NCC(=O)N1CCC[C@H]1C(=O)N1C[C@H](O)C[C@H]1C(N)=O) [OP1_Pro] | 19.5
2 | Ac-GP[Hyp]GP[Hyp]GP[Hyp]GA[Hyp]GPAGFAGP[Hyp]GP[Hyp]GP[Hyp]-NH2 (SMILES CC(=O)NCC(=O)N1CCC[C@H]1C(=O)N1C[C@H](O)C[C@H]1C(=O)NCC(=O)N1CCC[C@H]1C(=O)N1C[C@H](O)C[C@H]1C(=O)NCC(=O)N1CCC[C@H]1C(=O)N1C[C@H](O)C[C@H]1C(=O)NCC(=O)N[C@@H](C)C(=O)N1C[C@H](O)C[C@H]1C(=O)NCC(=O)N1CCC[C@H]1C(=O)N[C@@H](C)C(=O)NCC(=O)N[C@@H](Cc1ccccc1)C(=O)N[C@@H](C)C(=O)NCC(=O)N1CCC[C@H]1C(=O)N1C[C@H](O)C[C@H]1C(=O)NCC(=O)N1CCC[C@H]1C(=O)N1C[C@H](O)C[C@H]1C(=O)NCC(=O)N1CCC[C@H]1C(=O)N1C[C@H](O)C[C@H]1C(N)=O) [OP1_Hyp] | 2.63
